Results taken from patent US20090263383A1 (Amgen, published 2009).
Changes are numbered by the printed parent chain.

T1: huCD148 on human endothelial cells (planar migration assay) (human, UniProt Q12913 36-1337)
T1 sequence (looked up): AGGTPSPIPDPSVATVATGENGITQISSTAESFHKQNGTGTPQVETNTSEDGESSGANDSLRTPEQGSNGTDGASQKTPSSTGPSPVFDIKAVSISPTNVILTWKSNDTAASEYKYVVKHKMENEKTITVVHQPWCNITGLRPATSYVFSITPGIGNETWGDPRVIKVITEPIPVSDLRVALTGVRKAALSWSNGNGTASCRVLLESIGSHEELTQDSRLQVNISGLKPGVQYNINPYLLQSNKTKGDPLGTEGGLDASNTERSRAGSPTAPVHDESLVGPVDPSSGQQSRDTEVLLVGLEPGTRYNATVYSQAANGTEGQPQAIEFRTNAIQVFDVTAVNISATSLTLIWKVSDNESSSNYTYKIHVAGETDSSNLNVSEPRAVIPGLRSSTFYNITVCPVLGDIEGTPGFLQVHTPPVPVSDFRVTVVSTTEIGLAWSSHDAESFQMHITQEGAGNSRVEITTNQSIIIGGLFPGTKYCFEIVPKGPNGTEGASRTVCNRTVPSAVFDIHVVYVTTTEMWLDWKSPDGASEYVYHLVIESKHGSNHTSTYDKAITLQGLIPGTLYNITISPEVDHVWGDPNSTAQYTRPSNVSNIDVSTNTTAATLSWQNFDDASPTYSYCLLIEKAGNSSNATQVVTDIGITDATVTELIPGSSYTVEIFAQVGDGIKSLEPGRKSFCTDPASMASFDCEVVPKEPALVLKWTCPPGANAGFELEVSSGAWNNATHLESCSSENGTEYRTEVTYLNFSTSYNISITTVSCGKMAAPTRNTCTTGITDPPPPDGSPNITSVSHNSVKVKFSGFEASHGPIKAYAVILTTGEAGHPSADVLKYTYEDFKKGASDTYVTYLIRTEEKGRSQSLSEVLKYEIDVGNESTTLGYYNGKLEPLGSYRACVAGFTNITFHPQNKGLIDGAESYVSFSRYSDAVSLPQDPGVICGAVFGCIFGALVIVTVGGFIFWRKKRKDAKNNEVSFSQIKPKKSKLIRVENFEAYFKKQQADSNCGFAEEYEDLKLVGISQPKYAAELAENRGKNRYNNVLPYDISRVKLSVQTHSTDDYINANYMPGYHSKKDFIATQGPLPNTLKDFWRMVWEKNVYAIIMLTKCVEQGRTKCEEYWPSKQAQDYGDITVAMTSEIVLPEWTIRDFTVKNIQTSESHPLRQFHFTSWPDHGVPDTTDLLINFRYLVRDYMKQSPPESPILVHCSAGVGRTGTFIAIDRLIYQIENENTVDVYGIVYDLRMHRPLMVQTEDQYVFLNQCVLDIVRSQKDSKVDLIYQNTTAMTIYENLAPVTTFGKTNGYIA

B1: Antibody No. 7 (Ab-7) (antibody, V domains shown)
VH: EVQLVQSGAEVKKPGESLKISCKGYGYDFSRDWIAWVRQMPGKGLEWMGIIYPGDSDTRYSPSFEGQVTISADKSISTAYLQWRSLKASDTAMYYCARQRRLGWFDPWGQGTMVTVSS
VL: RSVLTQPPSVSAAPGQKVTISCSGSTSNIGNNYVSWYQQHPGKAPKLMIYDVSKRPSGVPDRFSGSKSGNSASLDISGLQSEDEADYYCAAWDDSLSEFLFGTGTKLTVL
B2: Antibody No. 3 (Ab-3) (antibody, V domains shown)
VH: GVQLVQSGAEVKKPGASVKVSCKASGYTFTSYYMHWVRQAPGQGLEWMGIINPSGGSTSYAQKFQGRVTMTRDTSTSTVYMELSSLRSEDTAVYYCARRVISGAFDIWGQGTMVTVSS
VL: DIQMTQSPSTLSASIGDRVTITCRASEGIYHWLAWYQQKPGKAPKLLIYKASSLASGAPSRFSGSGSGTDFTLTISSLQPDDFATYYCQQYSNYPLTFGGGTKLEIK
B3: Antibody No. 1 (Ab-1) (antibody, V domains shown)
VH: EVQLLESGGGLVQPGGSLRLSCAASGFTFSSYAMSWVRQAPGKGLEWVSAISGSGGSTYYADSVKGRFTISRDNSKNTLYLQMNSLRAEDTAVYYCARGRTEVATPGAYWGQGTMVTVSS
VL: QAVLTQPSSVSGAPGQRVTISCTGSSSNIGAGYDVHWYQQLPGTAPKLLIYGNSNRPSGVPDRFSGSKSGTSASLAVTGLQAEDEADYYCQSYDSSLSDVVFGGGTKLTVL
B4: Antibody No. 2 (Ab-2) (antibody, V domains shown)
VH: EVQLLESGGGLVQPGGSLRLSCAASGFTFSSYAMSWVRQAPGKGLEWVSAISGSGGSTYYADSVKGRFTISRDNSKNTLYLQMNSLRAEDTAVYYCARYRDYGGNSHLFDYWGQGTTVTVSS
VL: EIVMTQSPSSLPASVGDRVTITCRASQNIKTYLHWYQQKPGKAPNLLIYAASNLQIGVPSRFSGSGSGTDFTLTISSLQPEDFATYFCQQSYITPPTFGQGTRLEIK
B5: Antibody No. 8 (Ab-8) (antibody, V domains shown)
VH: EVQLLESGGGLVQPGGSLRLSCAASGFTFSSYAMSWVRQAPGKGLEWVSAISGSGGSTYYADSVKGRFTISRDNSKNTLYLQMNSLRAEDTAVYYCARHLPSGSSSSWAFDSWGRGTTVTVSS
VL: SYVLTQPPSASGTPGQRVTISCSGSSSNIGSNYVYWYQQLPGTAPKLLIYRNNQRPSGVPDRFSGSKSGTSASLAISGLQSEDEADYYCEAWDDNVDGPVFGGGTKLTVL
B6: Antibody No. 4 (Ab-4) (antibody, V domains shown)
VH: QVQLVQSGAEVKKPGASVKVSCKASGYTFTSYYMHWVRQAPGQGLEWMGIINPSDGSTRYVEKFQGRVTMTRDTSTSTVYMELSSLRSEDTAVYFCARGMGPGPHYHFYMDVWGKGTMVTVSS
VL: SSELTQDPAVSVALGQTVRITCQGDSLRSYYTNWFQQKPGQAPLLVVYAKNKRPSGIPDRFSGSSSGNTASLTITGAQAEDEADYYCHSRDSGGNHVLFGGGTKLTVL
B7: Antibody No. 5 (Ab-5) (antibody, V domains shown)
VH: QVQLVQSGAEVKKPGASVKVSCKASGYTFTGQYIHWVRQAPGQGLEWMGWISAYNGYTDYAQKVQGRVTMTTDTSTSTAYMELRSLRSDDTAVYYCAREVWPVAAADTFSVFDIWGRGTLVTVSS
VL: B6 VL with T32A, N33S, F35Y, L44V, V47I, A49G, K52N, H88N, G93S, L98V
B8: Antibody No. 6 (Ab-6) (antibody, V domains shown)
VH: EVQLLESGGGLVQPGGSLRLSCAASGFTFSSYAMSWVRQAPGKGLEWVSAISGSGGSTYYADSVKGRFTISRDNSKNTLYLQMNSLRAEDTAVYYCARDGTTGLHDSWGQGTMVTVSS
VL: QSVLTQPPSASGTPGQRVTISCSGSSSNVGSNFVYWYQQFPGTAPKLLIYRNNQRPSGVPDRFSGSKSGTSASLAISGLRSEDEADYYCAAWDDTLNGHYVFGGGTKLTVL

target: T1, huCD148 on human endothelial cells …; assay: cell-based or functional assay

Inhibiting human endothelial cell migration and/or inhibited angiogenesis in the corneal angiogenesis assay, ≥ 20%:
B1, B2, B3, B4, B5, B6, B7, B8
